What was measured:
POT-3 [1] = molecular target: T1, POT-3 (Caenorhabditis elegans, UniProt G5EFG7 1-215); assay: EMSA; conditions: apparent, EMSA: 20 mM Tris-HCl pH 8.0, 50 mM NaCl, 1 mM MgCl2, 5 mM DTT, 50 ug/ml BSA, 4% Ficoll 400, on ice 10 min, competition and S4 Kd: same salts with 0.001% …
T1 sequence: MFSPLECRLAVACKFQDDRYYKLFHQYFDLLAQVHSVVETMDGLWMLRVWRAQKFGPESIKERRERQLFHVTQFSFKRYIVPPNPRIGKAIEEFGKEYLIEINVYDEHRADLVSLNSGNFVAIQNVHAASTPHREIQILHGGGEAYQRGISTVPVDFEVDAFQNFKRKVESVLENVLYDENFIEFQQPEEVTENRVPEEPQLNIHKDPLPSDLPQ

POT-2 [2] = molecular target: T2, POT-2 (Caenorhabditis elegans, UniProt O45595 1-251); assay: EMSA; conditions: apparent, EMSA: 20 mM Tris-HCl pH 8.0, 50 mM NaCl, 1 mM MgCl2, 5 mM DTT, 50 ug/ml BSA, 4% Ficoll 400, on ice 10 min, competition and S4 Kd: same salts with 0.001% …
T2 sequence: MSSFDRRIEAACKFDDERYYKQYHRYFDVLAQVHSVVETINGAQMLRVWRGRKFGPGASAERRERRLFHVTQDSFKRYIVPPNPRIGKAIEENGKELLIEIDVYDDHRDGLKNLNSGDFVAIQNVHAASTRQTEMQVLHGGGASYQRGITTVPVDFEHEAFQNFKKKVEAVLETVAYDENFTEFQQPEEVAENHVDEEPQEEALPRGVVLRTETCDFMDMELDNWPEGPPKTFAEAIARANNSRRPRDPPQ

POT-3 [3] = molecular target: T1, POT-3; assay: analytical gel filtration; 3 proteins per DNA; 500 mM NaCl; EMSA: 20 mM Tris-HCl pH 8.0, 50 mM NaCl, 1 mM MgCl2, 5 mM DTT, 50 ug/ml BSA, 4% Ficoll 400, on ice 10 min; competition and S4 Kd: same salts with 0.001% Tween-20, room temperature; gel filtration: 20 mM Tris-HCl pH 8.0, 500 mM NaCl, 10 mM DTT, 10% glycerol (binding); conditions: protein: recombinant; tags: 6xHis
POT-2 [4] = molecular target: T2, POT-2; assay: as above; conditions: protein: recombinant; tags: 6xHis
POT-3 [5] = molecular target: T1, POT-3; assay: analytical gel filtration; 1 protein per DNA; 500 mM NaCl; EMSA: 20 mM Tris-HCl pH 8.0, 50 mM NaCl, 1 mM MgCl2, 5 mM DTT, 50 ug/ml BSA, 4% Ficoll 400, on ice 10 min; competition and S4 Kd: same salts with 0.001% Tween-20, room temperature; gel filtration: 20 mM Tris-HCl pH 8.0, 500 mM NaCl, 10 mM DTT, 10% glycerol (binding); conditions: protein: recombinant; tags: 6xHis
POT-2 [6] = molecular target: T2, POT-2; assay: as above; conditions: protein: recombinant; tags: 6xHis

“fragment 7 / 12mer, (TTAGGC)2 3' overhang” gave a Kd (POT-3 [1]; on ice) of 0.16 nM, a Kd (POT-3 [1]; room temperature) of 5 nM and a Kd (POT-2 [2]; on ice) of 0.1 nM. It also gave a Kd (POT-2 [2]; room temperature) of 7.2 nM.

B1: (TTAGGC)4 ssDNA (ssDNA)
DNA: TTAGGCTTAGGCTTAGGCTTAGGC
B1: binds (POT-3 [3]); binds (POT-2 [4]).

B2: (TTAGGC)2 ssDNA (ssDNA)
DNA: TTAGGCTTAGGC
B2: binds (POT-3 [5]); binds (POT-2 [6]).

Reference: article PMC9881156, “POT-3 preferentially binds the terminal DNA-repeat on the telomeric G-overhang”
